According to the RNAGym collection of RNA variant scans (doi:10.1073/pnas.2313332121):

B1: TPR t1 (parent)
chain: GACCAAUCUGCCCUCAGAGCUCGAGAACAUCUUCGGAUGCAGAGGAGGCAGGCUUCGGUGGCGCGAUAGCGCCAACGUCCUCAACCUCCAAUGCAUCCCACCACAUGAUGAUGCCUGAAGAGCCUUGGUUUUUUG

Variants of: B1
Experiment: polymerase ribozyme fitness, log enrichment relative to wild type (log ratio); higher = more active; in vitro selection for triplet polymerase activity
Procedure, shortened: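 Mutant libraries of each subunit of a heterodimeric triplet polymerase ribozyme were built by PCR and transcribed. Each library went through one round of in vitro selection in triplicate: annealing with biotinylated primer, partner subunit and triplets, frozen incubation at −7 °C, gel excision of extended constructs, streptavidin-bead capture and RT-PCR. Input and output libraries were Illumina-sequenced; only genotypes with ≥10 input reads and ≥1 read per output were kept. Fitness is log2(genotype enrichment/wild-type enrichment), using inverse-variance-weighted replicate averages.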

| Variant | polymerase ribozyme fitness (log ratio) |
| --- | --- |
| G60A C79U U96A C115U C123G U132A | -1.19 |
| G57U C62U U81A | -0.351 |
| G58C G93A C114U | -3.02 |
| G60A U131G | 0.0187 |
| G60C C104A | -2.18 |
| G60U C79G C114U | -4.12 |
| G60A G110U | -1.74 |
| G60C A66G | -1.22 |
| G61A G113C G128U | -4.09 |
| G57C C88U A95U | -1.98 |
| G60U C85G C102A | -2.17 |
| U59C U109C C114A | -6.67 |
| G58C C102A | -2.66 |
| G60C A121U U125G U129G | -0.914 |
| U59G C104A A105U G110A | -5.5 |
| G60C C123G | 1.61 |
| G61C C88U | -1.5 |
| G61A U67A | -6.59 |
| G58C C72G A121U | 1.78 |
| G60A G117C | -2.42 |
| G60A G117U | -1.75 |

| Variant | polymerase ribozyme fitness (log ratio) |
| --- | --- |
| U59C U96C | -0.447 |
| U59G G60A C70G C115A A121C | -4.99 |
| G61C A74U | -4.43 |
| G57U C62A G117U | -5.4 |
| U59A G60A | 0.122 |
| G60A G120C | 0.892 |
| G60A U96C A118G | -0.126 |
| G57C A91C | -0.77 |
| G60A A74U U92A C104U U133A | -2.03 |
| G60C A118U | -0.0622 |
| G61A C104A | -1.95 |
| G57U G63A C89G | -3.98 |
| G58C C86A C89G | -4.05 |
| U59C U92G C114G U125G | -4.63 |
| G60U C94A | -0.596 |
| G57U C94G U112G | -4.47 |
| G61A G107A | -3.6 |
| U59C G120A G135U | -0.46 |
| G58A A84U U133A | -0.154 |
| U59G C82U G93U U96C C123U | -0.453 |
| G60C C62U | -2.34 |

| Variant | polymerase ribozyme fitness (log ratio) |
| --- | --- |
| G61A C101A U116A G128C | -6.04 |
| G58A U96C | -0.271 |
| G57C G110U G120U | -4.33 |
| G58U A103C A121G | -4.29 |
| G57U U125A | -0.415 |
| U59C G128U | -2.04 |
| G57U C79U A108G | -2.71 |
| G60A C101U | -0.265 |
| G58A U125G | -0.683 |
| U59G G63A U87C C114U | -4.39 |
| G60U A74U G110U G127A | -4.43 |
| G61A A83G G113A U130G | -1.85 |
| G57A U78G C82G | -0.698 |
| G60U C102U | -1.09 |
| U59A G63A | -1.13 |
| G60C C80A | -4.35 |
| G58A G71U C79A | -1.79 |
| G57U G77C U130G | -2.56 |
| G61A A100C | -0.823 |
| G58A C64U U78C C86U A111C U129C | -1.68 |
| G58U C73U | -0.0574 |

| Variant | polymerase ribozyme fitness (log ratio) |
| --- | --- |
| G57U U78G C114U A118U | -3.81 |
| G58A U129C | -0.222 |
| G61A G69A | -4.21 |
| G60C G61C | -1.72 |
| G60A C80A C85G C98U | -5.64 |
| G60A C94U | -0.196 |
| G57A U87C | -1.14 |
| U59A C70U U125A U133A | -1.97 |
| G57U U81G | -0.222 |
| G61A C88G G120A A121C G135U | -0.364 |
| G57U G110U | -1.8 |
| G57U G58C | -1.12 |
| G61A G128C | -1.93 |
| G61A U112C U129A | 1.39 |
| G57U G71C | -3.42 |
| G60C A103U | -5.01 |
| U59A G128C | -2.5 |
| G57U C70G C124G | -2.06 |
| G60A G77C A111C C123A | -3.68 |
| U59C U129C | -1.12 |
| U59G C85U C115A | -0.695 |
